The text below walks through data of patent US20210355204A1 (XOMA TECHNOLOGY, published 2021).

Assay [1] has as its target T1, TGFβ1 (human, UniProt P01137 279-390). Nature of the assay: cell-based or functional assay.
Assay [2] deals with T2, TGFβ2 (human, UniProt P61812 303-414).
T2 sequence (looked up): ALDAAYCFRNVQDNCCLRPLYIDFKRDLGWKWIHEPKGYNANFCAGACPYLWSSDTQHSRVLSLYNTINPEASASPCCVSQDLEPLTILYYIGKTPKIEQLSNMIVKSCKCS
Nature of the assay: cell-based or functional assay.

Assay [3] has as its target T3, TGFβ3 (human, UniProt P10600 301-412).
T3 sequence (looked up): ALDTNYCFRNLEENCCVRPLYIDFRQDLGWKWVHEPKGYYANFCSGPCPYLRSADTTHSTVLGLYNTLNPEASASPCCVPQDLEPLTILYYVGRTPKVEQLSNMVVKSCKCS
Nature of the assay: cell-based or functional assay.

Assay [4] addresses T1, TGFβ1. Nature of the assay: SPR (Biacore 2000), antibody immobilised on CM4 chip, TGFβ injected. On the procedure: (§1) A CM4 sensor chip (GE Healthcare) was used on a BIACORE 2000 system (GE Healthcare). The chip was preconditioned with two 30 second injections each at 50 μL/minute flow rate of 100 mM HCl, Glycine pH 2.0, 50 mM NaOH, and running buffer prior to immobilization. Running buffer for immobilization was a HEPES Buffered Saline (HBS-EP+) with 10 mM Hepes, 150 mM Sodium Chloride, 3 mM EDTA, and 0.05% Polysorbate 20 (Teknova). The chip surface was activated with a seven minute injection at 10 μL/minute of a freshly mixed 1:1 solution of 0.1 M N-Hydroxysuccinimide (NHS) and 0.4 M 1-Ethyl-3-(3-dimethylaminopropyl) carbodiimide hydrochloride (EDC). Following the activation injection, 1 ug/mL anti-TGFβ antibody in acetate pH 4.5 was injected at 10 μL/minute for one minute, with injections targeting 120 RU. 8 minutes of 1M Ethanolamine hydrochloride-NaOH pH 8.5 was injected to block the surface. The NHS, EDC, and Ethanolamine used were from the BIACORE Amine Coupling Kit.
(§2) Kinetic Analysis was performed using a running buffer of thoroughly degassed form of the HBS-EP+ buffer above supplemented with 1 mg/mL BSA (Sigma Aldrich, St. Louis Mo.). TGFβ sample injections were performed at 50 μL/minute for four minutes with a 900 second dissociation time. […] Regeneration was then performed with three injections of 30 seconds each of 100 mM HCl in 3 M MgCl₂ followed by a final 30 second blank buffer injection.
(§3) The data were analyzed using Scrubber2 (BioLogic Software, Campbell Australia) and was double referenced by subtracting both the blank flow cell data and the averaged bracketing blank injections. […] TGFβ proteins were injected at the same concentrations as described above at 30 μL/minute.
(In general: SPR reads the build-up and loss of mass on a sensor chip optically.)

Assay [5] addresses T2, TGFβ2. The assay is described as above. As for the experimental part:
as §1, §2, §3

Assay [6] addresses T3, TGFβ3. The description is as above. As for the experimental part:
as §1, §2, §3

For assay [7], the target named is T1, TGFβ1. Nature of the assay: SPR (Biacore 2000), TGFβ immobilised on CM1 chip, antibody injected. As for the experimental part:
(§4) The chip surface was activated with four minute injections at 20 μL/minute of a freshly mixed 1:1 solution of 0.1M N-Hydroxysuccinimide (NHS) and 0.4M 1-Ethyl-3-(3-dimethylaminopropyl) carbodiimide hydrochloride (EDC). Following the activation injection a 0.1 ug/mL solution of TGFβ in acetate pH 4.0 was injected at 20 μL/minute for several minutes. […] Injections of TGFβ were performed as a series of 1 to 2 minute injections looking at immobilized level between each injection. The target immobilized density of each TGFβ ligand was 30 RU. After the TGFβ immobilization injections, 4 minutes of 1 M Ethanolamine hydrochloride-NaOH pH 8.5 was injected to block the surface.
(§5) Each of the antibodies was diluted in running buffer to 5 μg/mL (33.3 nM) and 4 subsequent five-fold dilutions were prepared setting up concentrations of 33.33 nM, 6.67 nM, 1.33 nM, 267 pM, and 53 pM for each. These were then injected using the Kinject setting for four minutes at 50 μL/minute, with a 900 second dissociation time. Regeneration was then performed with a 12 μL (14.4 second) injection of 100 mM HCl at 50 μL/minute followed by an 18 second buffer injection. Injections were across all flow cells simultaneously and samples were run injected in quadruplicates with blank injections bracketing each set of descending concentration injection groups for each antibody. This means that before the same sample was injected a second time all other concentrations of all antibodies were injected once.
(§6) The data were analyzed using Scrubber2 (BioLogic Software, Campbell Australia) and were double referenced by subtracting both the blank flow cell data and the averaged bracketing blank injections.

Assay [8] has as its target T2, TGFβ2. The description is as above. On the procedure: as §4, §5, §6
Assay [9] addresses T3, TGFβ3. The assay is described as above. As for the experimental part:
as §4, §5, §6

Assay [10] has as its target T1, TGFβ1. In words: SPR competition: 4 nM TGFβ pre-mixed with 133 nM of the row's molecule, injected over immobilised XPA.42.089 (competitor). As for the experimental part:
(§7) A CM5 sensor chip (GE Healthcare) was used on a BIACORE 2000 system. The chip was preconditioned with four 30 second injections at 50 uL/minute flow rate of 100 mM HCl prior to immobilization. Running buffer for immobilization was a HEPES Buffered Saline (HBS-EP+) with 10 mM Hepes, 150 mM Sodium Chloride, 3 mM EDTA, and 0.05% Polysorbate 20. The chip surface was activated with a seven minute injection at 10 uL/minute of a freshly mixed 1:1 solution of 0.1 M N-Hydroxysuccinimide (NHS) and 0.4 M 1-Ethyl-3-(3-dimethylaminopropyl) carbodiimide hydrochloride (EDC). […] Injections were monitored and performed sequentially to establish immobilization levels very close to 300 RU. Eight minutes of 1 M Ethanolamine hydrochloride-NaOH pH 8.5 was injected to block the surface. The NHS, EDC, and Ethanolamine used were from the BIACORE Amine Coupling Kit. Fc1 was the activated and deactivated control.
(§8) Competition assays were performed using a running buffer of thoroughly degassed form of the HBS-EP+ buffer above supplemented with 1 mg/mL BSA. […] The TGFβ-RIIb-Fc recombinant receptor (R&D Systems) also was included as a competitor. Samples were allowed to come to equilibrium for 40 minutes at room temperature before the BIACORE run was started. Equilibrated samples were then injected at 30 uL/minute for three minutes over all of the flow cells. Regeneration was performed every cycle with one injection of 50 mM NaOH at 50 uL/minute for 6 seconds (5 μLs) and followed by a thirty second buffer injection. Samples were run in duplicates and analyzed for level of TGFβ bound at the end of the three minutes.

Assay [11] addresses T2, TGFβ2. The assay is described as above. On the procedure:
as §7, §8

For assay [12], the target named is T3, TGFβ3. The description is as above. On the procedure:
as §7, §8

B1: XPA.42.681 (antibody, IgG2, V domains shown)
VH: not shown
VL: SYVLTQPPSVSVAPGKTARITCGGNNIGFRSVHWYQQKSGQAPVLVIYFDRARPSGIPERFSASNSENTATLTIRRVEAGDEADYYCQVWDSDSDDLVFGGGTQLTVLG
In general, Kd refers to the free concentration of one partner at which half of the binding sites on the other are occupied at equilibrium, for simple one-to-one binding. The koff is the rate constant with which the complex falls apart. Low values mean a long-lived complex, high ones a short-lived complex. What is called kon is the rate constant with which the complex forms. A low value points to slower complex formation. With B1, the figures for the “IL-11 Release Assay - IC50 (A549 cells)” value in the assay with TGFβ1 [1], with TGFβ2 [2] and with TGFβ3 [3] were 0.0004 µg/mL, 0.001 µg/mL and 0.0008 µg/mL, respectively. The dissociation constant (Kd) came out at 0.0017 nM in the assay with TGFβ1 [4]; 0.0029 nM with TGFβ2 [5]; 0.0057 nM with TGFβ3 [6]; 0.032 nM with TGFβ1 [7]; 0.031 nM in the assay with TGFβ2 [8]; 0.054 nM with TGFβ3 [9]. The off-rate constant (koff) worked out at 7.2e-05 s⁻¹ in the assay with TGFβ1 [4]; 4.99e-05 s⁻¹ with TGFβ2 [5]; 7.5e-05 s⁻¹ in the assay with TGFβ3 [6]; 0.000363 s⁻¹ with TGFβ1 [7]; 0.000394 s⁻¹ in the assay with TGFβ2 [8]; 0.000665 s⁻¹ in the assay with TGFβ3 [9]. Also, the kon in the assay with TGFβ1 [4] turned out to be 4.25e+07 M⁻¹ s⁻¹; with TGFβ2 [5] it was 1.71e+07 M⁻¹ s⁻¹; with TGFβ3 [6], 1.3e+07 M⁻¹ s⁻¹; with TGFβ1 [7], 1.14e+07 M⁻¹ s⁻¹; with TGFβ2 [8], 1.28e+07 M⁻¹ s⁻¹; with TGFβ3 [9] it was 1.23e+07 M⁻¹ s⁻¹.

B2: XPA.42.068 (antibody, V domains shown)
VH: not shown
VL: SSELTQPPSVSVAPGEKARITCGGNNIGRKSVHWYQQRPGQAPVVVLYYDRVRPSGIPERFSGSNSGNTATLTITRVEAGDEADYFCQVWDNTSEHVVFGGGTQLTVLG
With B2, the “IL-11 Release Assay - IC50 (A549 cells)” value is 0.221 µg/mL with TGFβ1 [1], 0.111 µg/mL with TGFβ2 [2] and 1.79 µg/mL with TGFβ3 [3]. For the same molecule, the “average RU of TGFβ binding” value in the assay with TGFβ1 [10] was 10.8 RU; with TGFβ2 [11] it was 5.18 RU; with TGFβ3 [12] it was 7.32 RU. Moreover, the equilibrium dissociation constant (Kd) with TGFβ1 [4] was 0.059 nM; with TGFβ2 [5], 0.051 nM; with TGFβ3 [6], 0.455 nM; with TGFβ1 [7], 0.313 nM; with TGFβ2 [8] it was 0.109 nM; in the assay with TGFβ3 [9], 1.3 nM. Also, the koff amounted to 0.000905 s⁻¹ with TGFβ1 [4]; 0.000535 s⁻¹ in the assay with TGFβ2 [5]; 0.00384 s⁻¹ in the assay with TGFβ3 [6]; 0.0017 s⁻¹ in the assay with TGFβ1 [7]; 0.000798 s⁻¹ in the assay with TGFβ2 [8]; 0.00696 s⁻¹ in the assay with TGFβ3 [9]. Moreover, the kon in the assay with TGFβ1 [4] was found to be 1.53e+07 M⁻¹ s⁻¹; with TGFβ2 [5] it was 1.04e+07 M⁻¹ s⁻¹; with TGFβ3 [6], 8.45e+06 M⁻¹ s⁻¹; with TGFβ1 [7] it was 5.44e+06 M⁻¹ s⁻¹; with TGFβ2 [8], 7.3e+06 M⁻¹ s⁻¹; in the assay with TGFβ3 [9], 5.45e+06 M⁻¹ s⁻¹.
